Non-standard residues stand in square brackets, D forms with d. No end group written: not given here. Hmb = valic acid residue (β-branched hydroxycarboxylic acid); Lac = C[C@H](O)C(=O)O
Assay: Observation of temperature responsiveness by apparent absorbance (turbidity at 350 nm) of aqueous polymer solutions
Format: physicochemical
Conditions: for aggregation temperature / temperature responsiveness (gelation/aggregation by heating, liquefaction by cooling): reversibility: aqueous solution 10 mg/mL; for aggregation temperature: rate 1° C./5 minutes, 350 nm (FIG. 9); for temperature responsiveness (gelation/aggregation by heating, liquefaction by cooling): reversibility: temperature-increase and -decrease rate 1° C./5 minutes between 20° C. and 70° C., 350 nm
Protocol: (§1) FIG. 5 illustrates a graph obtained by the following procedure: an aqueous solution of poly(Gly-Ile-Gly-Lac-Pro) (SEQ ID NO: 7) (10 mg/mL) which is one embodiment of the present invention was put in a 1-mm-thick quartz cell for absorption spectra; the temperature was increased at a rate of 1° C./5 minutes between 20° C. and 70° C. and then decreased; transmittance (%) was measured with respect to a light of 350 nm at each temperature in a 1° C. interval; and a turbidity (%) obtained by subtracting the transmittance (%) from 100 was plotted.
as §1, with “FIG. 6” for “FIG. 5”, “of poly(Ala-Ile-Gly-Lac-Pro)” for “of poly(Gly-Ile-Gly-Lac-Pro)”, “NO: 8)” for “NO: 7)”
as §1, with “FIG. 9” for “FIG. 5”, “of poly(Gly-Val-Gly-Lac-Pro)” for “of poly(Gly-Ile-Gly-Lac-Pro)”, “NO: 9)” for “NO: 7)”, “plotted. In addition, as a comparative example, a plot of an aqueous solution (10 mg/mL) of poly(Gly-Val-Gly-Hmb-Pro) was shown.” for “plotted.”
as §1, with “FIG. 10” for “FIG. 5”, “of poly(Gly-Val-Gly-Lac-Pro)” for “of poly(Gly-Ile-Gly-Lac-Pro)”, “NO: 9)” for “NO: 7) (10 mg/mL)”, “invention with different concentrations (10, 20, 30, and 40 mg/mL)” for “invention”
as §1, with “FIG. 11” for “FIG. 5”, “of poly(Gly-Val-Gly-Lac-Pro)” for “of poly(Gly-Ile-Gly-Lac-Pro)”, “NO: 9) (40” for “NO: 7) (10”
The change in temperature responsiveness of each polymer obtained in Examples 2 and 4 due to heating an aqueous solution of the polymer was observed by apparent absorbance. The wavelength for observation was 350 nm. The wavelength corresponds to phenomenon of light scattering, i.e. white turbidity, by visual observation. Here, spectrum of poly(Gly-Ile-Gly-Lac-Pro (SEQ ID NO: 7)) and poly(Ala-Ile-Gly-Lac-Pro) (SEQ ID NO: 8) are shown in FIG. 5 and FIG. 6, respectively. The ordinate axes each represent turbidity converted from the transmittance. From the figure, the temperature responsiveness rate can be compared. […] In addition, in comparison between the observation by visual observation and the measured turbidity, the polymer underwent aggregation adequately even when the turbidity exceeds about 10 to 20%. […] The solution was actually returned to a uniform solution finally by left standing at 4° C. for 1 to 2 days. The extremely slow responsiveness (return to a uniform solution) at a low temperature is a novel property that has not happened before. […]

Substance	aggregation temperature	temperature responsiveness (gelation/aggregation by heating, liquefaction by cooling): reversibility	also measured
poly(Gly-Val-Gly-Lac-Pro) (GVG[Lac]P; also: polymerized repeat unit)	≥ 70 °C		reversibility of phase transition phenomenon (aqueous solution 40 mg/mL, 1° C./5 minutes, 20-70° C. (FIG. 11)): reversible; aggregation temperature at increased concentration (aqueous solution, concentration increased in the range 10 to 40 mg/mL (FIG. 10)): ≤ 70 °C; concentration dependence of aggregation temperature (range of 10 to 40 mg/mL (FIG. 10)): decrease with the increase in the concentration
poly(Gly-Ile-Gly-Lac-Pro) (GIG[Lac]P; numbers in words are those of the source; also: polymerized repeat, ~3 units) [depsipeptide polymer, polymerization degree about 3 (molecular weight about 1,200)]		reversible temperature responsiveness	
poly(Gly-Val-Gly-Hmb-Pro) (GVG[Hmb]P; also: polymerized repeat unit) [comparative depsipeptide polymer, Hmb=2-hydroxy-3-methylbutanoic acid (valic acid residue), reference compound]	20-30 °C		
poly(Ala-Ile-Gly-Lac-Pro) (AIG[Lac]P; numbers in words are those of the source; also: polymerized repeat, ~10 units) [depsipeptide polymer, polymerization degree about 10 (molecular weight about 4,500)]		irreversible temperature responsiveness for several hours even when cooled	time left standing until aggregated solution returned to a uniform solution (aggregation state at high temperature transferred to low temperature, left standing at 4° C.): 1 to 2 days
